Laboratory results taken from paper PMC3723540, “A Moonlighting Enzyme Links Escherichia coli Cell Size with Central Metabolism” (PLoS Genetics, 2013).

Experiments:
[1] = target: FtsZ (tubulin-like cell division protein) of E. coli, untagged (E. coli) (UniProt P0A9A6)
[2] = target: FtsZ (tubulin-like cell division protein) of E. coli, untagged (E. coli) (UniProt P0A9A6); remark: listed apart in the source
[3] = target: the molecule itself; test: 90° angle light scattering; 5 µM FtsZ in polymerization buffer (50 mM MES, 2.5 mM MgCl2, 1 mM EGTA, 50 mM KCl, pH 6.5), assembly started with 1 mM GTP, 30°C

Row | reduction of FtsZ's GTP hydrolysis (regenerative coupled GTPase assay), 5 µM FtsZ, ratios FtsZ:OpgH^N of 1:1 (25%), 1:1.5 (55%) and 1:2 (84%); FtsZ alone 5.1 GTP/minute/FtsZ [1] | apparent critical concentration (CcApp) of FtsZ for GTP hydrolysis at 0 µM (0.69 µM), 2.5 µM (1.31 µM), 5 µM (1.85 µM) and 10 µM OpgH^N (4.08 µM) [2] | Binder | binding result [3]
1 | 84% | 4.08 µM | OpgH^N (N-terminal cytoplasmic domain of the glucosyltransferase OpgH, residues 1-138) (domain or fragment) MNKTTEYIDAMPIAASEKAALPKTDIRAVHQALDAEHRTWAREDDSPQGSVKARLEQAWPDSLADGQLIKDDEGRDQLKAMPEAKRSSMFPDPWRTNPVGRFWDRLRGRDVTPRYLARLTKEEQESEQKWRTVGTIRR | –
2 | – | – | FtsZ (tubulin-like cell division protein) of E. coli, untagged (natural protein, UniProt P0A9A6 1-383, looked up, FtsZ, cell division protein of E. coli, in its native (untagged) form; also called E. coli FtsZ; source: untagged) MFEPMELTNDAVIKVIGVGGGGGNAVEHMVRERIEGVEFFAVNTDAQALRKTAVGQTIQIGSGITKGLGAGANPEVGRNAADEDRDALRAALEGADMVFIAAGMGGGTGTGAAPVVAEVAKDLGILTVAVVTKPFNFEGKKRMAFAEQGITELSKHVDSLITIPNDKLLKVLGRGISLLDAFGAANDVLKGAVQGIAELITRPGLMNVDFADVRTVMSEMGYAMMGSGVASGEDRAEEAAEMAISSPLLEDIDLSGARGVLVNITAGFDLRLDEFETVGNTIRAFASDNATVVIGTSLDPDMNDELRVTVVATGIGMDKRPEITLVTNKQVQQPVMDRYQQHGMAPLTQEQKPVAKVVNDNAPQTAKEPDYLDIPAFLRKQAD | binds
